Experimental findings from EP2908837B1 (Vect-Horus, dated 2014) are described below.

Assay [1] has as its target mouse LDLR (in vivo, wild-type against LDLR -/- mice) (mouse, UniProt P35951 22-862). Description: cell-based or functional assay.
Assay [2] deals with T1, Fc alone (human Fc fragment of an IgG1 antibody) (human, UniProt P01857-1 104-330 = IgG part, limits assumed).
T1 construct: domain: Fc fragment; Negative control
The experiment in a line: pulse-chase immunocytochemistry on CHO-hLDLR-GFP cells, anti-human Fc antibody Alexa 594.

Chain of mouse LDLR (in vivo, wild-type against LDLR -/- mice) (P35951 22-862): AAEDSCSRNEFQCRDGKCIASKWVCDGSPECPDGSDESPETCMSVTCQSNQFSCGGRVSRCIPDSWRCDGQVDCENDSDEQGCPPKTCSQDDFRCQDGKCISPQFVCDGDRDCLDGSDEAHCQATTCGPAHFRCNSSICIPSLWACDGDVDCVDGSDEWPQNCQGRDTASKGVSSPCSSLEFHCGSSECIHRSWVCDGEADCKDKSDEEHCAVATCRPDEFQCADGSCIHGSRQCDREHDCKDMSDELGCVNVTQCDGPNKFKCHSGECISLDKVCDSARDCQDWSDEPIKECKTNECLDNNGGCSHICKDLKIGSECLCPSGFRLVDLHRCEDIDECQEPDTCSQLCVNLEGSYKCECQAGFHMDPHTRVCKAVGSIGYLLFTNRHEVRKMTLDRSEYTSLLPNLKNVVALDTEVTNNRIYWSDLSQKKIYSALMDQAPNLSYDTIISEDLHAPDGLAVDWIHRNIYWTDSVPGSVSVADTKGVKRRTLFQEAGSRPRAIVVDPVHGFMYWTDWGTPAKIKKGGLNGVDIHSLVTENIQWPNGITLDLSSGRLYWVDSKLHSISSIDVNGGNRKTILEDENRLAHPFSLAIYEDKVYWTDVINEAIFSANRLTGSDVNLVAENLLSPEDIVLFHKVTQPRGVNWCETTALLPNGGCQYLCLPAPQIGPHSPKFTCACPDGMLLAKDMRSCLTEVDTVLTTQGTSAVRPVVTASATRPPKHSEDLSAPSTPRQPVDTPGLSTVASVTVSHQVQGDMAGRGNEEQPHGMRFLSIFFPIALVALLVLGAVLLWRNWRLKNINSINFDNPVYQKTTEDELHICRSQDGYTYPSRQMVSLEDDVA

B1: peptide SEQ ID NO: 1, (D)-Cys-Met-Thz-Arg-Leu-Arg-Gly-Pen (peptide)
peptide: XMXRLRGX
modifications: (D)-Cys at 1, Thz (thiazolidine-4-carboxylic acid) at 3, Pen (penicillamine) at 8; cyclised by a disulfide bridge
For B1, in assay [1], the “decrease in peptide concentration in the adrenal glands of LDLR-/- (KO) mice compared to wild-type mice, tritium-labelled peptide, 10 min after i.v. injection” value is about 3.4 fold; the “decrease in peptide concentration in the intestine of LDLR-/- (KO) mice compared to wild-type mice, tritium-labelled peptide, 10 min after i.v. injection” value is about 3.6 fold; the “decrease in peptide concentration in the liver of LDLR-/- (KO) mice compared to wild-type mice, tritium-labelled peptide, 10 min after i.v. injection” value is about 4 fold.

B2: hLDLR fused to GFP, on CHO-hLDLR-GFP cells (receptor)
chain: not shown
notes: whole, on cells; also called CHO-LDLR-GFP; not shown: GFP fused in the C-term position
Consider B2, for which the binding result in assay [2] is given as “no binding (tested: 5 nM)”.
